Measured values: patent US20080255035A1, “SPARC AND METHODS OF USE THEREOF” (Abraxis BioScience, Inc., priority 2007, published 2008)

Assays:
[1] = test system: HT29 colon cancer xenograft; assay: s.c. human HT29 colon cancer xenograft model, 5-FU with BIO1; type: in vivo, nude mice
Method: To further explore the chemotherapy sensitizing activity of SPARC, the athymic mouse tumor xenograft system was used to assess the sensitization of HT 29 human colocancer cells to 5-flurouracil (“5-FU”).
The cancer cells were implanted subcutaneously bilaterally in athymic mice. The mice were treated with saline or 25 mg/kg of 5-FU (see Table 4). Those animals that received SPARC were treated with wild type polypeptide (SEQ ID NO:1) at a dose of 4 mg/kg, 6 mg/kg or 8 mg/kg (see Table 4). The animals were monitored for survival and xenograft growth as measures of efficacy and body weight change as a measure of toxicity.

HUVEC [2] = assay: Transport of paclitaxel across EC monolayers on transwell (HUVEC); type: cell-based, human; conditions: cell type not specified
Method: A series of experiments were performed to evaluate binding and transport of paclitaxel by human umbilical vein endothelial cells (HUVEC) and human lung microvessel endothelial cells (HLMVEC) for ABX and TAX. Fluorescent paclitaxel (FP) was used as a probe and fluorescent ABX and TAX were formulated with FP to probe the binding and transport of paclitaxel across EC monolayers grown on a transwell apparatus.

[3] = test system: Breast Cancer (MDA-MB-231); assay: Breast cancer xenograft, SPARC / Avastin / Abraxane; type: in vivo, athymic nude mice; conditions: for tumor growth, addition to Abraxane compared to the other arms: breast cancer cells
Method: (§1) Human breast cancer (FIGS. 7 and 8) and colon cancer cells (FIGS. 9 and 10) were grown in athymic nude mice as xenografts as in EXAMPLES 12 and 13. There were 5 mice in each treatment group. Tumors were treated when they reached 200 mm^3. […] Both wild type (“BIO1”) and Q3 mutant SPARC (“BIO2”) were evaluated. The animals were monitored for survival and xenograft growth as measures of efficacy and body weight change as a measure of toxicity.

Colon Cancer (HT29) = assay: Colon cancer xenograft, SPARC / Avastin / Abraxane; type: in vivo, athymic nude mice; conditions: for tumor growth, single agent therapy versus saline control / tumor growth, addition to Abraxane compared to Abraxane alone: colon cancer cells
Method: as §1

HUVEC [4] = assay: In vitro angiogenesis assay (TSC CellWorks Angiokit); type: cell-based, human; conditions: 12 days in culture
Method: In this system, human umbilical vein endothelial cells (“HUVEC”) are co-cultured with other human cells (fibroblast) in collagen matrix. HUVEC cells initially form small islands within the culture matrix. HUVEC differentiate, proliferate and enter migratory phase during which they move through the matrix and form threadlike tubule structures (9-11 days). These gradually join up and form a network which resemble the capillary bed.
HUVEC cells grown in a three dimensional matrix were treated with various concentration of wild type SPARC polypeptide (SEQ ID NO: 1) or the Q3 mutant SPARC polypeptide (SEQ ID NO: 3). Capillary microtubules were visualized using immunostaining for CD31 after 12 days in culture. FIG. 6 depicts SPARC's concentration dependent effect on neoangiogensis showing characteristic examples of the capillary microtubular density in the absence of SPARC (0 μg/ml), wild type or Q3 SPARC at 10 μg/ml, and wild type or Q3 SPARC at 100 μg/ml.

O=c1[nH]cc(F)c(=O)[nH]1 [5-FU, 5-flurouracil]
% BWLmax ([1]; 5-FU 25 mg/kg IP): −5.8%
TGI (%) ([1]; 5-FU 25 mg/kg IP, post-treatment day 25): 79.8%

CCN1C(=O)C=CC1=O [NEM]
effect on transport of paclitaxel from ABX across endothelial monolayers (HUVEC [2]): inhibited

Avastin: angiogenesis inhibitor [reference compound]
Tumor growth inhibition (TGI) relative to Abraxane alone ([3]; MDA-MB-231, SPARC 150 μg/kg 2×/week, Avastin 4 mg/kg twice per week, Abraxane 15 mg/kg every fourth day ×3): 16%
Tumor growth inhibition (TGI) relative to Abraxane alone (Colon Cancer (HT29); HT29, SPARC 150 μg/kg 2×/week, Avastin 4 mg/kg twice per week, Abraxane 15 mg/kg every fourth day ×3): <0%
tumor growth, single agent therapy versus saline control (Colon Cancer (HT29)): no better than the saline control treatments

beta-methyl cyclodextrin [BMC]
effect on transport of paclitaxel from ABX across endothelial monolayers (HUVEC [2]): inhibited

B1: BIO1: wild type SPARC polypeptide (SEQ ID NO: 1) (protein, listed as Homo sapiens)
chain: APQQEALPDETEVVEETVAEVTEVSVGANPVQVEVGEFDDGAEETEEEVVAENPCQNHHCKHGKVCELDENNTPMCVCQDPTSCPAPIGEFEKVCSNDNKTFDSSCHFFATKCTLEGTKKGHKLHLDYIGPCKYIPPCLDSELTEFPLRMRDWLKNVLVTLYERDEDNNLLTEKQKLRVKKIHENEKRLEAGDHPVELLARDFEKNYNMYIFPVHWQFGQLDQHPIDGYLSHTELAPLRAPLIPMEHCTTRFFETCDLDNDKYIALDEWAGCFGIKQKDIDKDLVI
sensitization of the cancer cells to 5-FU ([1]; any of the SPARC concentrations used (4, 6, 8 mg/kg)): failed to sensitize

B2: SPARC: Secreted Protein, Acidic, Rich in Cysteines, also known as osteonectin; wild type or Q3 not told apart at the place (protein)
chain: APQQEALPDETEVVEETVAEVTEVSVGANPVQVEVGEFDDGAEETEEEVVAENPCQNHHCKHGKVCELDENNTPMCVCQDPTSCPAPIGEFEKVCSNDNKTFDSSCHFFATKCTLEGTKKGHKLHLDYIGPCKYIPPCLDSELTEFPLRMRDWLKNVLVTLYERDEDNNLLTEKQKLRVKKIHENEKRLEAGDHPVELLARDFEKNYNMYIFPVHWQFGQLDQHPIDGYLSHTELAPLRAPLIPMEHCTTRFFETCDLDNDKYIALDEWAGCFGIKQKDIDKDLVI
angiogenic activity (capillary microtubule density, CD31) (HUVEC [4]; 10 μg/ml): proangiogenic
angiogenic activity (capillary microtubule density, CD31) (HUVEC [4]; 100 μg/ml): inhibits angiogenesis
tumor growth, addition to Abraxane compared to the other arms [3]: marked decreases in tumor growth
tumor growth, addition to Abraxane compared to Abraxane alone (Colon Cancer (HT29)): further decreases in tumor growth
tumor growth, single agent therapy versus saline control (Colon Cancer (HT29)): no better than the saline control treatments

B3: BIO2: Q3 mutant SPARC (SEQ ID NO: 3), deletion of the third glutamine in mature human SPARC (protein, listed as Homo sapiens)
chain: APQEALPDETEVVEETVAEVTEVSVGANPVQVEVGEFDDGAEETEEEVVAENPCQNHHCKHGKVCELDENNTPMCVCQDPTSCPAPIGEFEKVCSNDNKTFDSSCHFFATKCTLEGTKKGHKLHLDYIGPCKYIPPCLDSELTEFPLRMRDWLKNVLVTLYERDEDNNLLTEKQKLRVKKIHENEKRLEAGDHPVELLARDFEKNYNMYIFPVHWQFGQLDQHPIDGYLSHTELAPLRAPLIPMEHCTTRFFETCDLDNDKYIALDEWAGCFGIKQKDIDKDLVI
tumor growth, addition to Abraxane compared to the other arms [3]: similar, though blunted, results
tumor growth, addition to Abraxane compared to Abraxane alone (Colon Cancer (HT29)): fails to slow tumor growth beyond that achieved with Abraxane®
